The text below walks through data of patent publication US20250002610A1 (Genmab, published 2025).

Residue numbers refer to the chain shown, from its start.

In assay [1] the target is T1, human FAPα (Fibroblast activation protein alpha), cell surface expressed (human, UniProt Q12884 1-760).
T1 construct: Endogenous on human lung fibroblasts and CAFs
T1 sequence: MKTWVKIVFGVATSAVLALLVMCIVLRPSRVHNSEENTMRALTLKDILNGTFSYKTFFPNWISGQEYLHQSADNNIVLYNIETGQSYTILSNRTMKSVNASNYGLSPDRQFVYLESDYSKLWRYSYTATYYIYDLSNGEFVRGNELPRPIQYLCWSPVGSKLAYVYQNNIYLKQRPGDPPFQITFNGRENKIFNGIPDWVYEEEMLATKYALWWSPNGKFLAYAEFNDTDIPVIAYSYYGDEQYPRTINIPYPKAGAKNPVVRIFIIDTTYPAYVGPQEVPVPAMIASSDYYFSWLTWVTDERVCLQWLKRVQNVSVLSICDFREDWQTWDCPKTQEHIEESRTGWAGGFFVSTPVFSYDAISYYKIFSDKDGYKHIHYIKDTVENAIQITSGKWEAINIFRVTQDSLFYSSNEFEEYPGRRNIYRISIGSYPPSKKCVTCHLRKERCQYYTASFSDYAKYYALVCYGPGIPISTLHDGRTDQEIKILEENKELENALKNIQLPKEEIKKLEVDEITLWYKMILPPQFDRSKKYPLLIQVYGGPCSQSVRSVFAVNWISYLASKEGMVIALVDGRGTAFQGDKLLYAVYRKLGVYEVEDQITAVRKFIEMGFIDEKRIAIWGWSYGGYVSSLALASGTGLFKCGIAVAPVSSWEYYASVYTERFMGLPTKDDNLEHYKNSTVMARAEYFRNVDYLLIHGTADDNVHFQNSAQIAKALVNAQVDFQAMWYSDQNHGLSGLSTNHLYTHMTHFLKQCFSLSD
The assay can be described thus: flow cytometry, human lung fibroblasts, n = 1. As to the method: (§1) Binding of bispecific or monoclonal antibodies carrying the anti-FAPα arm derived from IgG1-FAPα-FERL (BisG1-FAPα-FERL/DR4-FERR, BisG1-FAPα-FERL/b12-FERR, and IgG1-FAPα-FERL) to cell surface expressed human FAPα was analyzed by flow cytometry using human lung fibroblasts and CAFs, which endogenously express FAPα. BisG1-b12-FERL/b12-FERR was used as negative control.
(§2) Human lung fibroblasts and CAFs (50,000 cells/well) were seeded in 96-Well round bottom plates (Greiner Bio-one, Cat #650101). Antibody dilutions were prepared using fluorescence-activated cell sorting (FACS) buffer, consisting of phosphate buffer saline (PBS, Lonza, Cat #BE17-517Q)+1% Bovine Serum Albumin (BSA, Roche, Cat #10735086001)+0.02% Sodium Azide (Bio-World, Cat #41920044-3). Plates were centrifuged, supernatant was removed, cells were resuspended in 50 μL of human Fc Block (BD, Cat #564220, diluted 1:100 in FACS buffer) and 50 μL of viability stain TO-PRO-3 Iodide (Thermo Fisher, Cat #T3605, diluted 1: 25,000 in FACS buffer), and incubated for 15 min at 4° C. Plates were washed three times with FACS buffer. Plates were centrifuged, supernatant was removed, cells were resuspended in 50 μL of antibody dilutions (concentration range 90-0.0005 μg/mL, three-fold dilution steps using FACS buffer) of BisG1-FAPα-FERL/DR4-FERR, BisG1-FAPα-FERL/b12-FERR, BisG1-b12-FERL/b12-FERR (top six concentrations only for CAFs culture) or IgG1-FAPα-FERL (top four concentrations only for CAFs culture) and incubated for 30 min at 4° C. Cells were washed three times with FACS buffer and resuspended in 50 μL of Fluorescein isothiocyanate (FITC)-labeled polyclonal antibody goat anti-mouse IgG1 (Jackson Immuno Research, Cat #109-096-097, diluted 1:100 in FACS buffer). […] Antibody binding to viable cells (TO-PRO-3 negative) was analyzed by flow cytometry on a FACSCelesta™ (BD biosciences) and data were processed using FlowJo_v10.8.1 (FlowJo LLC). Geomean fluorescence intensity, gMFI, was determined and visualized using GraphPad Prism.
Background: In flow cytometry, cells or beads pass a laser one at a time.

Assay [2] addresses T1, human FAPα (Fibroblast activation …). The experiment in a line: flow cytometry, human lung fibroblasts, average ± SEM. As to the method: as §1, §2
Assay [3] deals with T2, human DR4 (Death Receptor 4), cell surface expressed on human tumor cell lines (human, UniProt O00220 24-468).
T2 construct: also called TNFRSF10A; TRAIL-R1
T2 sequence: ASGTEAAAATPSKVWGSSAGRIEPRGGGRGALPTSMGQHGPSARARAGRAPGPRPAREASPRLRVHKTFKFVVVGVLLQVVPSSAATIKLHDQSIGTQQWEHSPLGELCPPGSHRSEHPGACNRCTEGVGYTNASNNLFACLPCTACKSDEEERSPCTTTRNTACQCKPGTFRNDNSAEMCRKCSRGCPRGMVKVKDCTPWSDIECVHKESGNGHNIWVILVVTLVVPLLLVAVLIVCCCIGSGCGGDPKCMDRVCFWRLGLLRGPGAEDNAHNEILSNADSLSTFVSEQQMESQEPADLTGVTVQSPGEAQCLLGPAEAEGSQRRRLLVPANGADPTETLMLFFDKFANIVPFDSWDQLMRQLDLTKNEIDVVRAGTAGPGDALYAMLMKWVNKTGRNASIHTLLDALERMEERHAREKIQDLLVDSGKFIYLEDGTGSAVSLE
The assay can be described thus: flow cytometry, HCT-15 cells, n = 2.

Assay [4] concerns the target T2, human DR4 (Death Receptor 4), cell …. The assay can be described thus: flow cytometry, MDA-MB-231 cells, n = 2.

B1: BisG1-FAPα-FERL/b12-FERR (bispecific antibody, human IgG1, kappa)
heavy 1: EVQLLESGGGLVQPGGSPRLSCEASGFTFSSYALSWVRQAPGKGLEWVSAISGSGGGRYYADSVKGRFTISRDNSKNTLFLQMNSLRAEDTAVYYCAKEGYSSSGTYWDHWGQGTLVTVSSASTKGPSVFPLAPSSKSTSGGTAALGCLVKDYFPEPVTVSWNSGALTSGVHTFPAVLQSSGLYSLSSVVTVPSSSLGTQTYICNVNHKPSNTKVDKRVEPKSCDKTHTCPPCPAPEFERGPSVFLFPPKPKDTLMISRTPEVTCVVVDVSHEDPEVKFNWYVDGVEVHNAKTKPREEQYNSTYRVVSVLTVLHQDWLNGKEYKCKVSNKALPAPIEKTISKAKGQPREPQVYTLPPSREEMTKNQVSLTCLVKGFYPSDIAVEWESNGQPENNYKTTPPVLDSDGSFLLYSKLTVDKSRWQQGNVFSCSVMHEALHNHYTQKSLSLSPG
light 1: AIQMTQSPSSVSASVGDRVTITCRASQGVSSWLAWYQQKPGRAPKLLIYVASTLQSGVPSRFSGSGSGTDFTLTINSLQPEDFATYYCQQANSFPPTFGQGTRLEMKRTVAAPSVFIFPPSDEQLKSGTASVVCLLNNFYPREAKVQWKVDNALQSGNSQESVTEQDSKDSTYSLSSTLTLSKADYEKHKVYACEVTHQGLSSPVTKSFNRGEC
heavy 2: QVQLVQSGAEVKKPGASVKVSCQASGYRFSNFVIHWVRQAPGQRFEWMGWINPYNGNKEFSAKFQDRVTFTADTSANTAYMELRSLRSADTAVYYCARVGPYSWDDSPQDNYYMDVWGKGTTVIVSSASTKGPSVFPLAPSSKSTSGGTAALGCLVKDYFPEPVTVSWNSGALTSGVHTFPAVLQSSGLYSLSSVVTVPSSSLGTQTYICNVNHKPSNTKVDKRVEPKSCDKTHTCPPCPAPEFERGPSVFLFPPKPKDTLMISRTPEVTCVVVDVSHEDPEVKFNWYVDGVEVHNAKTKPREEQYNSTYRVVSVLTVLHQDWLNGKEYKCKVSNKALPAPIEKTISKAKGQPREPQVYTLPPSREEMTKNQVSLTCLVKGFYPSDIAVEWESNGQPENNYKTTPPVLDSDGSFFLYSRLTVDKSRWQQGNVFSCSVMHEALHNHYTQKSLSLSPG
light 2: EIVLTQSPGTLSLSPGERATFSCRSSHSIRSRRVAWYQHKPGQAPRLVIHGVSNRASGISDRFSGSGSGTDFTLTITRVEPEDFALYYCQVYGASSYTFGQGTKLERKRTVAAPSVFIFPPSDEQLKSGTASVVCLLNNFYPREAKVQWKVDNALQSGNSQESVTEQDSKDSTYSLSSTLTLSKADYEKHKVYACEVTHQGLSSPVTKSFNRGEC
With B1, the EC50 in assay [1] turned out to be 0.043 µg/mL; in assay [2], 0.041 µg/mL.

B2: IgG1-FAPα-FERL (antibody)
heavy: B1 heavy 1
light: B1 light 1
notes: Bivalent monoclonal IgG1 kappa
With B2, the EC50 in assay [1] came to 0.016 µg/mL; in assay [2], 0.015 µg/mL.

B3: BisG1-b12-FERL/DR4-FERR (bispecific antibody, human IgG1, kappa, lambda)
heavy 1: B1 heavy 2 with F415L, R419K
light 1: B1 light 2
heavy 2: QVQLQESGPGLVKPSGTLSLTCAVSGGSISSYSWWSWIRQPPGKGLEWIGELYHSGSTNYNPSLKSRVTISVDKSKNQFSLKLRSVTAADTAVYYCVRGVATIDYWGQGTLVTVSSASTKGPSVFPLAPSSKSTSGGTAALGCLVKDYFPEPVTVSWNSGALTSGVHTFPAVLQSSGLYSLSSVVTVPSSSLGTQTYICNVNHKPSNTKVDKRVEPKSCDKTHTCPPCPAPEFERGPSVFLFPPKPKDTLMISRTPEVTCVVVDVSHEDPEVKFNWYVDGVEVHNAKTKPREEQYNSTYRVVSVLTVLHQDWLNGKEYKCKVSNKALPAPIEKTISKAKGQPREPQVYTLPPSREEMTKNQVSLTCLVKGFYPSDIAVEWESNGQPENNYKTTPPVLDSDGSFFLYSRLTVDKSRWQQGNVFSCSVMHEALHNHYTQKSLSLSPG
light 2: QSALTQPPSASGSPGQSVTISCTGTSSDVGGYNFVSWYQQDPGKAPKLLIYEVTKRPSGVPDRFSGSKSGNTASLTVSGLQAEDEADYYCSSYAGSNNVMFGGGTKLTVLGQPKAAPSVTLFPPSSEELQANKATLVCLISDFYPGAVTVAWKADSSPVKAGVETTTPSKQSNNKYAASSYLSLTPEQWKSHRSYSCQVTHEGSTVEKTVAPTECS
notes: Fab-arm exchange of IgG1-b12-FERL and IgG1-DR4-FERR; also called bsIgG1-ctrl-FERLxDR4-FERR
B3: the EC50 in assay [3] is 0.57 µg/mL; in assay [4], 1 µg/mL.

B4: IgG1-DR4-FERR (antibody, V domains shown)
VH: QVQLQESGPGLVKPSGTLSLTCAVSGGSISSYSWWSWIRQPPGKGLEWIGELYHSGSTNYNPSLKSRVTISVDKSKNQFSLKLRSVTAADTAVYYCVRGVATIDYWGQGTLVTVSS
VL: QSALTQPPSASGSPGQSVTISCTGTSSDVGGYNFVSWYQQDPGKAPKLLIYEVTKRPSGVPDRFSGSKSGNTASLTVSGLQAEDEADYYCSSYAGSNNVMFGGGTKLTVLG
notes: Bivalent monoclonal IgG1 lambda
For the molecule B4, the EC50 is 0.17 µg/mL in assay [3] and 0.27 µg/mL in assay [4].

A word on the EC50: it is the concentration giving half of the maximal effect.
